{
  "source": "patent US6572751B1",
  "about": "“Method and apparatus for continuous flow isoelectric focusing for purifying biological substances” (priority 1997, dated 2003)",
  "molecules": {"B1": {"name": "α-amylase: enzyme purified from Bacillus subtilis strain A-200 culture supernatant (protein, UniProt P00691 42-659, looked up)", "Alpha-amylase": "LTAPSIKSGTILHAWNWSFNTLKHNMKDIHDAGYTAIQTSPINQVKEGNQGDKSMSNWYWLYQPTSYQIGNRYLGTEQEFKEMCAAAEEYGIKVIVDAVINHTTSDYAAISNEVKSIPNWTHGNTQIKNWSDRWDVTQNSLLGLYDWNTQNTQVQSYLKRFLDRALNDGADGFRFDAAKHIELPDDGSYGSQFWPNITNTSAEFQYGEILQDSASRDAAYANYMDVTASNYGHSIRSALKNRNLGVSNISHYASDVSADKLVTWVESHDTYANDDEESTWMSDDDIRLGWAVIASRSGSTPLFFSRPEGGGNGVRFPGKSQIGDRGSALFEDQAITAVNRFHNVMAGQPEELSNPNGNNQIFMNQRGSHGVVLANAGSSSVSINTATKLPDGRYDNKAGAGSFQVNDGKLTGTINARSVAVLYPDDIAKAPHVFLENYKTGVTHSFNDQLTITLRADANTTKAVYQINNGPETAFKDGDQFTIGKGDPFGKTYTIMLKGTNSDGVTRTEKYSFVKRDPASAKTIGYQNPNHWSQVNAYIYKHDGSRVIELTGSWPGKPMTKNADGIYTLTLPADTDTTNAKVIFNNGSAQVPGQNQPGFDYVLNGLYNDSGLSGSLPH"}},
  "experiment": "Amylolytic activity of purified α-amylase",
  "conditions": "middle outflow after second contifocusing run",
  "data": [
    {"molecule": "B1", "values": [
      {"measurement": "amylolytic activity", "value": 200, "unit": "U/g"}
    ]}
  ]
}
